Biological target: CCR5 (UniProt P51681)
Assay: cell-based or functional assay

UniProt P51681, sequence (P51681 whole entry): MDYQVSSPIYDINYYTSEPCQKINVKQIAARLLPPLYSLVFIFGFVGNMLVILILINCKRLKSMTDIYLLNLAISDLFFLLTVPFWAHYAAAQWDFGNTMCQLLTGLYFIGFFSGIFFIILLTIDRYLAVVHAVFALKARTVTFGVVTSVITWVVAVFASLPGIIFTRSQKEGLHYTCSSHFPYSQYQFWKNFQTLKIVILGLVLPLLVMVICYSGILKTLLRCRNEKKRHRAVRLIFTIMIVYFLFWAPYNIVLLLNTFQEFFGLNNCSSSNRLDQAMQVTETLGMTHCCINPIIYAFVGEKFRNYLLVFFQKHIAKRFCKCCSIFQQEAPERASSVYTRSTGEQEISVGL

Substance	Average infectivity IC50 (cell-free viral infection assay)	Cell-fusion result for comparison (IC50)	Mean Relative Potency (IC50 of cell fusion inhibition relative to AOP-RANTES = 100) (relative to AOP-RANTES = 100)	percentage fusion inhibition at the lowest dilution	EC50, HeLa P4-CCR5/HeLa-Env-ADA cell fusion
NNY-P-Y3Chg-RANTES (4-68) (from UniProt P13501 25-91) (ligand)	0.012 nM	0.026 nM	7	> 50%	–
AOP-RANTES-K(palmitoyl)-G (from UniProt P13501 25-91) (ligand)	–	–	45	–	–
NNY-P2Thz-Y3Chg-RANTES (4-68) (from UniProt P13501 25-91) (ligand)	–	–	2	> 50%	–
NNY-P2Thz-Y3tButA-RANTES (4-68) (from UniProt P13501 25-91) (ligand)	–	–	4	> 50%	–
n-nonanoyl-RANTES (2-68), CH3-(CH2)7-C(O)-RANTES (2-68) (from UniProt P13501 25-91) (ligand)	0.024 nM	0.097 nM	–	–	0.323 nM
aminooxypentane-RANTES (2-68), CH3-(CH2)4-O-N=CH-CO-RANTES (2-68) (from UniProt P13501 25-91) (ligand)	0.145 nM	0.48 nM	100	–	1.81 nM
NNY-P-Y3tbuA-RANTES (4-68) (from UniProt P13501 25-91) (ligand)	0.014 nM	0.038 nM	7	> 50%	–
